In patent publication US20230346961A1, “GLP-1 AND GIP RECEPTOR CO-AGONISTS” (Novo Nordisk A/S, priority 2020, published 2023):
Starred links: 1 amine or outer side, 2 acyl side, 3 side chain; linkers in the order of their positions; H or OH if unused. Non-standard residues stand in square brackets, D forms with d. Groups on a side chain read outwards from the residue. No end group written: not given here. *: point of attachment. C18 diacid = O=C(O)CCCCCCCCCCCCCCCCC(=O)*; γGlu = O=C(O)[C@H](CCC(=O)[*:2])N[*:1]; εLys = N[C@@H](CCCCN[*:1])C(=O)[*:2]; AEEA = NCCOCCOCC(=O)O; Aib = CC(C)(N)C(=O)O

T1: human glucose-dependent insulinotropic polypeptide receptor (human) (UniProt P48546)
T1 sequence (looked up): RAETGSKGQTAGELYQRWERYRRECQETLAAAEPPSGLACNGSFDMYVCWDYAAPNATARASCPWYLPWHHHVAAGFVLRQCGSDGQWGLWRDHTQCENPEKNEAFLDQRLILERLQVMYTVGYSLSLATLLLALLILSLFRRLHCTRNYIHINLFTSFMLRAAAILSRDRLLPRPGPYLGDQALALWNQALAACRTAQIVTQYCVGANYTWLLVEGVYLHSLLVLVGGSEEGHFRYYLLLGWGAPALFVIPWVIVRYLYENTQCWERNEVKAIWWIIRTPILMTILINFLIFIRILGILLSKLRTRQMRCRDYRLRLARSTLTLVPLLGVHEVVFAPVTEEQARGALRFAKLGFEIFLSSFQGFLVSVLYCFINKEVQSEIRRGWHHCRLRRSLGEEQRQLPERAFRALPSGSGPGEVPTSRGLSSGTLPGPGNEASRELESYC

T2: mouse glucose-dependent insulinotropic polypeptide receptor (mouse) (UniProt Q0P543)
T2 sequence (looked up): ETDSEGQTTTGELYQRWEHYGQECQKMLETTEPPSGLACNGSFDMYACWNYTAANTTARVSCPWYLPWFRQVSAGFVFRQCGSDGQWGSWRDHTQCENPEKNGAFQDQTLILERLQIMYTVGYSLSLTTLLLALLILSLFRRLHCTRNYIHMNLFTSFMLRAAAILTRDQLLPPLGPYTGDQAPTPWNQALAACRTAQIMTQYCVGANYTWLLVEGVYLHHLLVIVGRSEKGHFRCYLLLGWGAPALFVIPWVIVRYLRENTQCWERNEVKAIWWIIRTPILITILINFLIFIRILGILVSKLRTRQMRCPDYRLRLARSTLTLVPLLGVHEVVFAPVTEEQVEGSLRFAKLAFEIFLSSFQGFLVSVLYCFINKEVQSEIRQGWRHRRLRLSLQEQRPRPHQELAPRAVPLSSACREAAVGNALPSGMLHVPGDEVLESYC

T3: mouse glucagon-like peptide 1 receptor (mouse, UniProt O35659 22-463)
T3 sequence (looked up): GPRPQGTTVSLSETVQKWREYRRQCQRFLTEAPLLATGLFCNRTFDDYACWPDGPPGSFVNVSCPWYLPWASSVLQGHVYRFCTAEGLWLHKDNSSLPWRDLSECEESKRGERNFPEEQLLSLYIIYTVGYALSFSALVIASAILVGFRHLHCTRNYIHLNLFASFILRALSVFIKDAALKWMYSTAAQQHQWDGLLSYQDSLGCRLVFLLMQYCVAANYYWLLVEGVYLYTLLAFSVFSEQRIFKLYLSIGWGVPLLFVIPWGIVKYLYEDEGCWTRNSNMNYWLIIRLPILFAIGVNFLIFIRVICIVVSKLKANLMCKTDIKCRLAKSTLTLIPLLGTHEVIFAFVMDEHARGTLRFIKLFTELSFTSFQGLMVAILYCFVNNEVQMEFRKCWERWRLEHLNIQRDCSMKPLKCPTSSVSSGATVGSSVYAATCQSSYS

T4: mouse glucose-dependent insulinotropic polypeptide receptor (mouse, UniProt Q0P543 19-460)
T4 sequence (looked up): T2 sequence (looked up)

T5: human glucose-dependent insulinotropic polypeptide receptor (human, UniProt P48546 22-466)
T5 sequence (looked up): T1 sequence (looked up)

B1: Compound #9 (peptide)
peptide: Y[Aib]EGTFTSDYSIYLDKQAA[Aib]K([εLys-εLys-γGlu-C18 diacid])FVNWLLAGGPSSGAPPPS-NH2
modifications: N-terminus assumed
SMILES: CC[C@H](C)[C@H](NC(=O)[C@H](CO)NC(=O)[C@H](Cc1ccc(O)cc1)NC(=O)[C@H](CC(=O)O)NC(=O)[C@H](CO)NC(=O)[C@@H](NC(=O)[C@H](Cc1ccccc1)NC(=O)[C@@H](NC(=O)CNC(=O)[C@H](CCC(=O)O)NC(=O)C(C)(C)NC(=O)[C@@H](N)Cc1ccc(O)cc1)[C@@H](C)O)[C@@H](C)O)C(=O)N[C@@H](Cc1ccc(O)cc1)C(=O)N[C@@H](CC(C)C)C(=O)N[C@@H](CC(=O)O)C(=O)N[C@@H](CCCCN)C(=O)N[C@@H](CCC(N)=O)C(=O)N[C@@H](C)C(=O)N[C@@H](C)C(=O)NC(C)(C)C(=O)N[C@@H](CCCCNC(=O)[C@@H](N)CCCCNC(=O)[C@@H](N)CCCCNC(=O)CC[C@H](NC(=O)CCCCCCCCCCCCCCCCC(=O)O)C(=O)O)C(=O)N[C@@H](Cc1ccccc1)C(=O)N[C@H](C(=O)N[C@@H](CC(N)=O)C(=O)N[C@@H](Cc1c[nH]c2ccccc12)C(=O)N[C@@H](CC(C)C)C(=O)N[C@@H](CC(C)C)C(=O)N[C@@H](C)C(=O)NCC(=O)NCC(=O)N1CCC[C@H]1C(=O)N[C@@H](CO)C(=O)N[C@@H](CO)C(=O)NCC(=O)N[C@@H](C)C(=O)N1CCC[C@H]1C(=O)N1CCC[C@H]1C(=O)N1CCC[C@H]1C(=O)N[C@@H](CO)C(N)=O)C(C)C
B2: Compound #8 (peptide)
peptide: Ac-[dY]AEGTFTSDYSIYLDKQAA[Aib]K([εLys-εLys-γGlu-C18 diacid])FVNWLLAGGPSSGAPPPS-NH2
SMILES: CC[C@H](C)[C@H](NC(=O)[C@H](CO)NC(=O)[C@H](Cc1ccc(O)cc1)NC(=O)[C@H](CC(=O)O)NC(=O)[C@H](CO)NC(=O)[C@@H](NC(=O)[C@H](Cc1ccccc1)NC(=O)[C@@H](NC(=O)CNC(=O)[C@H](CCC(=O)O)NC(=O)[C@H](C)NC(=O)[C@@H](Cc1ccc(O)cc1)NC(C)=O)[C@@H](C)O)[C@@H](C)O)C(=O)N[C@@H](Cc1ccc(O)cc1)C(=O)N[C@@H](CC(C)C)C(=O)N[C@@H](CC(=O)O)C(=O)N[C@@H](CCCCN)C(=O)N[C@@H](CCC(N)=O)C(=O)N[C@@H](C)C(=O)N[C@@H](C)C(=O)NC(C)(C)C(=O)N[C@@H](CCCCNC(=O)[C@@H](N)CCCCNC(=O)[C@@H](N)CCCCNC(=O)CC[C@H](NC(=O)CCCCCCCCCCCCCCCCC(=O)O)C(=O)O)C(=O)N[C@@H](Cc1ccccc1)C(=O)N[C@H](C(=O)N[C@@H](CC(N)=O)C(=O)N[C@@H](Cc1c[nH]c2ccccc12)C(=O)N[C@@H](CC(C)C)C(=O)N[C@@H](CC(C)C)C(=O)N[C@@H](C)C(=O)NCC(=O)NCC(=O)N1CCC[C@H]1C(=O)N[C@@H](CO)C(=O)N[C@@H](CO)C(=O)NCC(=O)N[C@@H](C)C(=O)N1CCC[C@H]1C(=O)N1CCC[C@H]1C(=O)N1CCC[C@H]1C(=O)N[C@@H](CO)C(N)=O)C(C)C
B3: Compound #6 (peptide)
peptide: Y[Aib]EGTFTSDYSIYLDKQAA[Aib]K([γGlu-γGlu-γGlu-C18 diacid])FVNWLLAGGPSSGAPPPS-NH2
modifications: N-terminus assumed
SMILES: CC[C@H](C)[C@H](NC(=O)[C@H](CO)NC(=O)[C@H](Cc1ccc(O)cc1)NC(=O)[C@H](CC(=O)O)NC(=O)[C@H](CO)NC(=O)[C@@H](NC(=O)[C@H](Cc1ccccc1)NC(=O)[C@@H](NC(=O)CNC(=O)[C@H](CCC(=O)O)NC(=O)C(C)(C)NC(=O)[C@@H](N)Cc1ccc(O)cc1)[C@@H](C)O)[C@@H](C)O)C(=O)N[C@@H](Cc1ccc(O)cc1)C(=O)N[C@@H](CC(C)C)C(=O)N[C@@H](CC(=O)O)C(=O)N[C@@H](CCCCN)C(=O)N[C@@H](CCC(N)=O)C(=O)N[C@@H](C)C(=O)N[C@@H](C)C(=O)NC(C)(C)C(=O)N[C@@H](CCCCNC(=O)CC[C@H](NC(=O)CC[C@H](NC(=O)CC[C@H](NC(=O)CCCCCCCCCCCCCCCCC(=O)O)C(=O)O)C(=O)O)C(=O)O)C(=O)N[C@@H](Cc1ccccc1)C(=O)N[C@H](C(=O)N[C@@H](CC(N)=O)C(=O)N[C@@H](Cc1c[nH]c2ccccc12)C(=O)N[C@@H](CC(C)C)C(=O)N[C@@H](CC(C)C)C(=O)N[C@@H](C)C(=O)NCC(=O)NCC(=O)N1CCC[C@H]1C(=O)N[C@@H](CO)C(=O)N[C@@H](CO)C(=O)NCC(=O)N[C@@H](C)C(=O)N1CCC[C@H]1C(=O)N1CCC[C@H]1C(=O)N1CCC[C@H]1C(=O)N[C@@H](CO)C(N)=O)C(C)C
B4: Compound #7 (peptide)
peptide: Ac-[dY]AEGTFTSDYSIYLDKQAA[Aib]K([AEEA-AEEA-γGlu-C18 diacid])FVNWLLAGGPSSGAPPPS-NH2
SMILES: CC[C@H](C)[C@H](NC(=O)[C@H](CO)NC(=O)[C@H](Cc1ccc(O)cc1)NC(=O)[C@H](CC(=O)O)NC(=O)[C@H](CO)NC(=O)[C@@H](NC(=O)[C@H](Cc1ccccc1)NC(=O)[C@@H](NC(=O)CNC(=O)[C@H](CCC(=O)O)NC(=O)[C@H](C)NC(=O)[C@@H](Cc1ccc(O)cc1)NC(C)=O)[C@@H](C)O)[C@@H](C)O)C(=O)N[C@@H](Cc1ccc(O)cc1)C(=O)N[C@@H](CC(C)C)C(=O)N[C@@H](CC(=O)O)C(=O)N[C@@H](CCCCN)C(=O)N[C@@H](CCC(N)=O)C(=O)N[C@@H](C)C(=O)N[C@@H](C)C(=O)NC(C)(C)C(=O)N[C@@H](CCCCNC(=O)COCCOCCNC(=O)COCCOCCNC(=O)CC[C@H](NC(=O)CCCCCCCCCCCCCCCCC(=O)O)C(=O)O)C(=O)N[C@@H](Cc1ccccc1)C(=O)N[C@H](C(=O)N[C@@H](CC(N)=O)C(=O)N[C@@H](Cc1c[nH]c2ccccc12)C(=O)N[C@@H](CC(C)C)C(=O)N[C@@H](CC(C)C)C(=O)N[C@@H](C)C(=O)NCC(=O)NCC(=O)N1CCC[C@H]1C(=O)N[C@@H](CO)C(=O)N[C@@H](CO)C(=O)NCC(=O)N[C@@H](C)C(=O)N1CCC[C@H]1C(=O)N1CCC[C@H]1C(=O)N1CCC[C@H]1C(=O)N[C@@H](CO)C(N)=O)C(C)C

Experiments:
Test in all cases: cell-based or functional assay
[1] = target: T1, human glucose-dependent insulinotropic polypeptide receptor (human)
[2] = target: T2, mouse glucose-dependent insulinotropic polypeptide receptor (mouse)
[3] = target: T3, mouse glucagon-like peptide 1 receptor
[4] = target: T4, mouse glucose-dependent insulinotropic …
[5] = target: T5, human glucose-dependent insulinotropic …
[6] = target: human glucagon-like peptide 1 receptor (human, UniProt P43220 24-463)
human glucagon receptor = human glucagon receptor (human, UniProt P47871 26-477)

Row | Molecule | hGIPR, CRE Luc 0% HSA EC50 [1] | hGIPR, CRE Luc 1% HSA EC50 [1] | mGIPR, CRE Luc EC50 [2] | mGLP-1R, CRE Luc EC50 [3] | mGIPR, CRE Luc EC50 [4] | hGIPR, CRE Luc 0% HSA EC50 [5] | hGIPR, CRE Luc 1% HSA EC50 [5] | hGLP-1R, CRE Luc 0% HSA EC50 [6] | hGLP-1R, CRE Luc 1% HSA EC50 [6] | hGcgR, CRE Luc EC50 (human glucagon receptor)
1 | human GIP (from UniProt P09681 52-93) (ligand) | 8.5 pM | 3.8 pM | – | – | – | – | – | – | – | –
2 | mouse GIP (from UniProt P48756 44-85) (ligand) | – | – | 35.4 pM | – | – | – | – | – | – | –
3 | B1 | – | – | – | 2.5 pM | 68 pM | 11.6 pM | 135 pM | 6.7 pM | 110 pM | > 10000 pM
4 | B2 | – | – | – | 17 pM | 23.3 pM | 4.7 pM | 34.1 pM | 29.9 pM | 699 pM | –
5 | B3 | – | – | – | 2.3 pM | 1270 pM | 8.1 pM | 101 pM | 5.9 pM | 244 pM | –
6 | B4 | – | – | – | 17.4 pM | 42.5 pM | 3.3 pM | 49.3 pM | 55.7 pM | 1730 pM | –
